# According to PMC7939390 (The Journal of Biological Chemistry, 2020):
# No end group written: not given here. *: point of attachment. FITC = O=C1OC2(c3ccc(O)cc3Oc3cc(O)ccc32)c2ccc(NC(=S)*)cc21
# T1: PBP1b (positions 58–804) (E. coli, UniProt P02919 58-804)
# T1 construct: Crystallized with moenomycin A (1:1) and the EFtsN peptide (3:1); also called PBP1b (Lys58–Ser804); source: purified (details in the supporting information)
# T1 sequence (looked up): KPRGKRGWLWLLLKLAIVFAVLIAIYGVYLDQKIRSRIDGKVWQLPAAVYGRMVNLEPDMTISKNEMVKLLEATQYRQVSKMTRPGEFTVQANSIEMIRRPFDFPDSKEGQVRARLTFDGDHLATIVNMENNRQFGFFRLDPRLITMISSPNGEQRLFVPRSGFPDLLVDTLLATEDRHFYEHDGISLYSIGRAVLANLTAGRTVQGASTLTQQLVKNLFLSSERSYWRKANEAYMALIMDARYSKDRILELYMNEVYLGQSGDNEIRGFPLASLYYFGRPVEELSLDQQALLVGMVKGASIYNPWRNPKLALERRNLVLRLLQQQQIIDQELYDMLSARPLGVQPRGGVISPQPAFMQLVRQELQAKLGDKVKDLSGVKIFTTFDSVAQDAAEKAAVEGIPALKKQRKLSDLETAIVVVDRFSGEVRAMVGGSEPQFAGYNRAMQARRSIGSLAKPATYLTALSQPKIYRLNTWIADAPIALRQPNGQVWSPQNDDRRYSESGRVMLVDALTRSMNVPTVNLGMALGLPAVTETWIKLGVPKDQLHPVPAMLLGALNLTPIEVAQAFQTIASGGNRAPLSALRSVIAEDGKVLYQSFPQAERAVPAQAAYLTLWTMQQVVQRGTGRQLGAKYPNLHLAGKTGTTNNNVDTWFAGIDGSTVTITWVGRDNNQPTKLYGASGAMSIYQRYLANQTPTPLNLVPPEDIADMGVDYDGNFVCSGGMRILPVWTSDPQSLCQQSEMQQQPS
# T2: PBP1bγ (penicillin-binding protein 1b, gamma form) (E. coli, UniProt P02919-2 1-799)
# T2 construct: also called 1b WT
# T2 sequence (looked up): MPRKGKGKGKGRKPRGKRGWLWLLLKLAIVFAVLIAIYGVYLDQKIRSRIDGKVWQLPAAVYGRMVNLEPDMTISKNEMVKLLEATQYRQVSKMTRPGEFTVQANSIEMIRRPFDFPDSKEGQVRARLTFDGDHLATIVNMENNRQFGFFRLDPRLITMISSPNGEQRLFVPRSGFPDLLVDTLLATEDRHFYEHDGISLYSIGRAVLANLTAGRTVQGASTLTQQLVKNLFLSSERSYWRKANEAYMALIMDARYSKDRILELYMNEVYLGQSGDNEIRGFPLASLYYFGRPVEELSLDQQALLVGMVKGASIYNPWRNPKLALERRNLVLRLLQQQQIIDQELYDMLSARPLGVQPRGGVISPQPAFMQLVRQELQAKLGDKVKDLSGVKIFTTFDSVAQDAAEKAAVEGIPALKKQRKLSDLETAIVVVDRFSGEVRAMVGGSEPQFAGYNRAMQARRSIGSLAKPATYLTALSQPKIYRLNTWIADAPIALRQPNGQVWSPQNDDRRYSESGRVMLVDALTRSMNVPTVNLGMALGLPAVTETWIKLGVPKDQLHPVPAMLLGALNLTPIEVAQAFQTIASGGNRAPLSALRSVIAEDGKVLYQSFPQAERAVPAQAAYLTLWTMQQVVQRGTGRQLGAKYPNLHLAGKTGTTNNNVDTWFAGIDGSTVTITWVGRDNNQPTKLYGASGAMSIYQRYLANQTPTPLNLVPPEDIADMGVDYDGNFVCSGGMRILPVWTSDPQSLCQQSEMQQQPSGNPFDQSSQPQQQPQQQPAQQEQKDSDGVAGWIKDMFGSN
# T3: PBP1b (Escherichia coli, UniProt P02919)
# T3 sequence (P02919 1-799 isoform P02919-2): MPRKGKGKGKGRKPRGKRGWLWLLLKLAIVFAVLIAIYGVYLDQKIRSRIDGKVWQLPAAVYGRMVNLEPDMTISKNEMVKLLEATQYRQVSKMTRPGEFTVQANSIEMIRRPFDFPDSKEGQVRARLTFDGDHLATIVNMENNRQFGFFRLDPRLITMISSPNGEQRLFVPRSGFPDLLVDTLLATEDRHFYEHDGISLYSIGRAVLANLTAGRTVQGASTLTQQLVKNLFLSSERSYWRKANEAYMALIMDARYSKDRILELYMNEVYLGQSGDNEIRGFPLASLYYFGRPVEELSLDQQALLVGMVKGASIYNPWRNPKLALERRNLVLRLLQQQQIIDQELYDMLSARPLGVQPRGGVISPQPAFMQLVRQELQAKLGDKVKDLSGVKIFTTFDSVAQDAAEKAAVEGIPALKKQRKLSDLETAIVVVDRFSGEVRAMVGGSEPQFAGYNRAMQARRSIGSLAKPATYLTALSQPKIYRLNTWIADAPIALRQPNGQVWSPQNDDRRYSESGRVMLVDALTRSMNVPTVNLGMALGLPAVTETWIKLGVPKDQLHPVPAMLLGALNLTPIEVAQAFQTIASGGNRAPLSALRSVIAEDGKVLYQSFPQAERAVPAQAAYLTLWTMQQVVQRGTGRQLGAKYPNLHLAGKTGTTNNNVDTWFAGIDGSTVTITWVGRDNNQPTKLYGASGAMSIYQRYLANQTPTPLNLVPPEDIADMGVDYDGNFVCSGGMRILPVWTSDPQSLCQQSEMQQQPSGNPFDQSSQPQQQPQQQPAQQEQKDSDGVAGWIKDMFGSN
# T4: PBP1b R141A/R397A (E. coli, UniProt P02919 1-844, R141A | R397A)
# T4 sequence (looked up): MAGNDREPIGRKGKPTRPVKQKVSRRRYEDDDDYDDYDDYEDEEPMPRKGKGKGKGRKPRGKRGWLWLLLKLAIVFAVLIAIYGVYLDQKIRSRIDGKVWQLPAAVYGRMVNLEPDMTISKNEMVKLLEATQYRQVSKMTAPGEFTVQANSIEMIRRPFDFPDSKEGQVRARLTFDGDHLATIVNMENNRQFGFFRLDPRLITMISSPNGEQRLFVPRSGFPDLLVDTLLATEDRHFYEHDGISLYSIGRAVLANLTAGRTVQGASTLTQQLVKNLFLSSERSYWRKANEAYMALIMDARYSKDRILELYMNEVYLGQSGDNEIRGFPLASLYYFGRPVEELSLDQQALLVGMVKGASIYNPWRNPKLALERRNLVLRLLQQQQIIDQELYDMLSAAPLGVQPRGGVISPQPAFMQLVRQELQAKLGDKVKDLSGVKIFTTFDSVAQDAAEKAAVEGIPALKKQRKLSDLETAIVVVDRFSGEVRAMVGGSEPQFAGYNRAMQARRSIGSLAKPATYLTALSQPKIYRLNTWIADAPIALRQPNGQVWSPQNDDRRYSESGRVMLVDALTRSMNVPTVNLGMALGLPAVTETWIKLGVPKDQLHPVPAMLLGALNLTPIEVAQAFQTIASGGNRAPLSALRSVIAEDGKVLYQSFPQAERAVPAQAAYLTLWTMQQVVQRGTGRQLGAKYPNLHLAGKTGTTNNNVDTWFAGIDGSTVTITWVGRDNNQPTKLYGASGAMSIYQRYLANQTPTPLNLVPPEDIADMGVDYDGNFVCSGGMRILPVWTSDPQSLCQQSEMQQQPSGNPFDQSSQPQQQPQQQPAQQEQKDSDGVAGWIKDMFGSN
# Key:
# PBP1b (positions 58–804) = target: T1, PBP1b (positions 58–804); test: crystal structure; co-crystallization of PBP1b (Lys58–Ser804) with moenomycin A (1:1) and EFtsN peptide (3:1), hanging drop, 20 °C; 2.4 Å; conditions: both partners purified
# [1] = target: T2, PBP1bγ (penicillin-binding protein 1b, …); test: fluorescence polarisation; fluorescence anisotropy; FITC-Lys69–Gln93 probe at 100 nM, serial dilutions of the proteins in their specific buffer, 384-well plates, 30 min at 25 °C; conditions: both partners purified
# [2] = test system: E. coli EJ801 (ΔponB-ponA^ts); test: microscopy of EJ801 cells, cell morphology and length; format: cell-based, Escherichia coli; parameters: cell length L: unit not given here; conditions: EJ801 after 1 h at 42 °C, n = 250, phase contrast, ImageJ/ObjectJ
# Description: Samples were taken from the complementation cultures (42 °C) at different time (1-h intervals), and the cells were fixed as described ([63]). Photographs were taken with a cooled AxioCam MRm (Zeiss) mounted on a Zeiss Axio Imager. Z1 microscope, and the images were acquired in phase-contrast mode using the AxioVision Rel. 4.5 (Zeiss) software. The cell morphologies analysis were determined using ImageJ software (RRID:SCR_003070) running under plugin ObjectJ (RRID:SCR_019190).
# PBP1b^R141A/R397A = format: biochemical, Escherichia coli; conditions: versus PBP1b^WT; GTase, dansyl-lipid II; mean ± s.d. of three experiments
# Description: The error bars represent the values as means ± S.D. of three experiments.
# The GTase activity assays with dansyl-lipid II as substrate were performed in a medium binding black 96-well microplate (Greiner Bio One) as described ([57]). The samples contained 10 μM dansyl-lipid II, 50 mM HEPES-NaOH, pH 7.5, 200 mM NaCl, 10 mM CaCl2, 0.085% of decyl-PEG, 20% of DMSO, and 1 unit of N-acetylmuramidase of Streptomyces globisporus (Sigma). […] The reactions were initiated by the addition of 30 nM PBP1bγ (100 nM for PBP1a) and monitored by following the fluorescence decrease over 20 min at 30 °C using an Infinite 200 PRO microplate reader (Tecan, Männedorf, Switzerland) with excitation wavelength at 340 nm and emission at 520 nm.
# activity of the PBP1bWT and PBP1bR141A-R397A was monitored in the presence or the absence of LpoB by
# continuous fluorescence assay using dansyl-lipid II (LII) as substrate. The error bars represent the values
# as mean ± s.d. of three experiments.
# PBP1b = target: T3, PBP1b; conditions: cited from earlier work
# Text: Bacteria generally have at least one bifunctional (GTase/TPase) PBP of class A and one monofunctional (TPase only) PBP of class B ([2], [13]). E. coli contains three aPBPs: PBP1a, 1b, and 1c, and two bPBPs: PBP2 and PBP3, the latter being involved in cell elongation and division, respectively ([14]). PBP1a and PBP1b are major PG synthases and at least one of them is required for cell viability ([15]).
# PBP1b R141A/R397A = target: T4, PBP1b R141A/R397A; test: cell-based or functional assay
molecule,measurement,setting,value
"LPPKPEERWRYIKELESRQ (FtsN, E. coli, residues Leu75–Gln93 (essential region around helix H2); also called essential region of FtsN; synthetic peptide Leu75–Gln93; source: synthetic peptide, bought: Synpeptide (Shanghai, China)) [EFtsN peptide (Leu75–Gln93), unlabeled]",binding result,PBP1b (positions 58–804),binds
"{FITC}-KVTGNGLPPKPEERWRYIKELESRQ (also called F-EFtsN; fluorescent EFtsN peptide; source: synthetic peptide, bought: Synpeptide (Shanghai, China)) [FITC-labeled peptide (FITC-Lys69–Gln93) of FtsN]",Kd,[1],8.1 ± 1.7 µM
PBP1b^WT: PBP1b wild-type (protein) MPRKGKGKGKGRKPRGKRGWLWLLLKLAIVFAVLIAIYGVYLDQKIRSRIDGKVWQLPAAVYGRMVNLEPDMTISKNEMVKLLEATQYRQVSKMTRPGEFTVQANSIEMIRRPFDFPDSKEGQVRARLTFDGDHLATIVNMENNRQFGFFRLDPRLITMISSPNGEQRLFVPRSGFPDLLVDTLLATEDRHFYEHDGISLYSIGRAVLANLTAGRTVQGASTLTQQLVKNLFLSSERSYWRKANEAYMALIMDARYSKDRILELYMNEVYLGQSGDNEIRGFPLASLYYFGRPVEELSLDQQALLVGMVKGASIYNPWRNPKLALERRNLVLRLLQQQQIIDQELYDMLSARPLGVQPRGGVISPQPAFMQLVRQELQAKLGDKVKDLSGVKIFTTFDSVAQDAAEKAAVEGIPALKKQRKLSDLETAIVVVDRFSGEVRAMVGGSEPQFAGYNRAMQARRSIGSLAKPATYLTALSQPKIYRLNTWIADAPIALRQPNGQVWSPQNDDRRYSESGRVMLVDALTRSMNVPTVNLGMALGLPAVTETWIKLGVPKDQLHPVPAMLLGALNLTPIEVAQAFQTIASGGNRAPLSALRSVIAEDGKVLYQSFPQAERAVPAQAAYLTLWTMQQVVQRGTGRQLGAKYPNLHLAGKTGTTNNNVDTWFAGIDGSTVTITWVGRDNNQPTKLYGASGAMSIYQRYLANQTPTPLNLVPPEDIADMGVDYDGNFVCSGGMRILPVWTSDPQSLCQQSEMQQQPSGNPFDQSSQPQQQPQQQPAQQEQKDSDGVAGWIKDMFGSN,cell length L,[2],2.17 ± 0.46
"LpoB: outer-membrane lipoprotein LpoB (protein, UniProt P0AB38 20-213, looked up) Penicillin-binding protein …: CVGQREPAPVEEVKPAPEQPAEPQQPVPTVPSVPTIPQQPGPIEHEDQTAPPAPHIRHYDWNGAMQPMVSKMLGADGVTAGSVLLVDSVNNRTNGSLNAAEATETLRNALANNGKFTLVSAQQLSMAKQQLGLSPQDSLGTRSKAIGIARNVGAHYVLYSSASGNVNAPTLQMQLMLVQTGEIIWSGKGAVSQQ",activation of PBP1b^R141A/R397A by LpoB,PBP1b^R141A/R397A,remained unchanged
same,catalytic activities of PBP1b (literature),PBP1b,stimulates both of its catalytic activities
"HisFtsN (full-length FtsN) (natural protein, E. coli, UniProt P29131 1-319, looked up) MAQRDYVRRSQPAPSRRKKSTSRKKQRNLPAVSPAMVAIAAAVLVTFIGGLYFITHHKKEESETLQSQKVTGNGLPPKPEERWRYIKELESRQPGVRAPTEPSAGGEVKTPEQLTPEQRQLLEQMQADMRQQPTQLVEVPWNEQTPEQRQQTLQRQRQAQQLAEQQRLAQQSRTTEQSWQQQTRTSQAAPVQAQPRQSKPASSQQPYQDLLQTPAHTTAQSKPQQAAPVARAADAPKPTAEKKDERRWMVQCGSFRGAEQAETVRAQLAFEGFDSKITTNNGWNRVVIGPVKGKENADSTLNRLKMAGHTNCIRLAAGG","fold decrease in activation of the GTase activity of PBP1b R141A/R397A by FtsN against the WT protein, continuous fluorescence assay",PBP1b R141A/R397A,2 fold
